In patent publication US20230212549A1, “COMPOUNDS COMPRISING A […] LIGAND AND USE THEREOF” (priority 2021, published 2023):
Bridge positions count the residues as written; N and C are the ends.

T1: Ubiquitin carboxyl-terminal hydrolase 8, P40818
T1 chain: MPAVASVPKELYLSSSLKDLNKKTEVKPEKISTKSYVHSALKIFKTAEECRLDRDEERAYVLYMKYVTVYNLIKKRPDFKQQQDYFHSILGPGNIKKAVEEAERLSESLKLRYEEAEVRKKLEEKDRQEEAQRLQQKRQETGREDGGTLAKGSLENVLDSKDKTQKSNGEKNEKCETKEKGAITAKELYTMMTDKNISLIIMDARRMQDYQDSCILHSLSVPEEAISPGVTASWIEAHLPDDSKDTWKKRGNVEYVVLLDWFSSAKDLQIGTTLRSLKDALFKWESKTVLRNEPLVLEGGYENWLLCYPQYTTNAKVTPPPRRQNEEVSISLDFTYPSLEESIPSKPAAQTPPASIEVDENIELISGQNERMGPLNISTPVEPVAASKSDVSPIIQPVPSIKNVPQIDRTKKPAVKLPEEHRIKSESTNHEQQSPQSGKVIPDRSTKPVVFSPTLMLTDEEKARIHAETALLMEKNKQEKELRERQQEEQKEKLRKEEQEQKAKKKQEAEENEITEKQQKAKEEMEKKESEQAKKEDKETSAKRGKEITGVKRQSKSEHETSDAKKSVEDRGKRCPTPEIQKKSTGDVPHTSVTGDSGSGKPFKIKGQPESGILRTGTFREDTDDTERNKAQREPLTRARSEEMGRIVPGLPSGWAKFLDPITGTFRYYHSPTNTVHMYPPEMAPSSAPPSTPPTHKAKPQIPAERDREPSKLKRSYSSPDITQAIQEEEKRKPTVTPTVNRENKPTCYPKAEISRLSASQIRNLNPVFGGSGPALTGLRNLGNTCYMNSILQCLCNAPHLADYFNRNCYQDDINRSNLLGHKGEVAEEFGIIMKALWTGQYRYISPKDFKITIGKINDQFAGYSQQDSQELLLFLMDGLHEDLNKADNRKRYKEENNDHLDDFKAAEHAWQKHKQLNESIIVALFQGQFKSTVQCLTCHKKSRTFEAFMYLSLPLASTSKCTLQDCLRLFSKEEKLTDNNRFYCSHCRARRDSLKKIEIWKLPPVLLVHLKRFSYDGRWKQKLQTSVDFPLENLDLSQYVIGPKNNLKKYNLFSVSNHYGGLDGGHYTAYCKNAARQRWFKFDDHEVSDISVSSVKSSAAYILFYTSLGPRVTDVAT

T2: PDE4D2 (h) (human), Q08499
T2 chain: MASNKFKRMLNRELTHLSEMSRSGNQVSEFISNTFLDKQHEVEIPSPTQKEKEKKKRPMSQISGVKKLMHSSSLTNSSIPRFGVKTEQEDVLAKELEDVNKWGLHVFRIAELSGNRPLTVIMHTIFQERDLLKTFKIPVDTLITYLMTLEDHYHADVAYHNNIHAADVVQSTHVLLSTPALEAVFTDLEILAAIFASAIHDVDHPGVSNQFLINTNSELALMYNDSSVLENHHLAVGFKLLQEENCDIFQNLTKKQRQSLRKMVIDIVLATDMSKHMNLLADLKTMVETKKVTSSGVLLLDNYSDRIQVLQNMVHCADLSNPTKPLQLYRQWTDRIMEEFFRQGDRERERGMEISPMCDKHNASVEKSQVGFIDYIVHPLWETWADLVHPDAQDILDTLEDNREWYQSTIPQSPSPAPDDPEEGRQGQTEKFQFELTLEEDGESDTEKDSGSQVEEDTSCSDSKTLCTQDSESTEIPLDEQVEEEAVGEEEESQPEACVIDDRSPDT

T3: Caspase-7, P55210
T3 chain: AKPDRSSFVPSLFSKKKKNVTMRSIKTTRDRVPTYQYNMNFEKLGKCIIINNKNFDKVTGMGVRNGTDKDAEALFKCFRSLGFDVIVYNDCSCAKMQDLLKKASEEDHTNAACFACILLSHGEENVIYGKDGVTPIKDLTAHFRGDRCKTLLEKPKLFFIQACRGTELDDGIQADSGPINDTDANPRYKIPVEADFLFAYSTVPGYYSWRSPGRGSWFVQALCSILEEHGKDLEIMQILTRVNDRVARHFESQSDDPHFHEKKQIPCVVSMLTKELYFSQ

T4: Acetylcholinesterase (h) (human), P22303
T4 chain: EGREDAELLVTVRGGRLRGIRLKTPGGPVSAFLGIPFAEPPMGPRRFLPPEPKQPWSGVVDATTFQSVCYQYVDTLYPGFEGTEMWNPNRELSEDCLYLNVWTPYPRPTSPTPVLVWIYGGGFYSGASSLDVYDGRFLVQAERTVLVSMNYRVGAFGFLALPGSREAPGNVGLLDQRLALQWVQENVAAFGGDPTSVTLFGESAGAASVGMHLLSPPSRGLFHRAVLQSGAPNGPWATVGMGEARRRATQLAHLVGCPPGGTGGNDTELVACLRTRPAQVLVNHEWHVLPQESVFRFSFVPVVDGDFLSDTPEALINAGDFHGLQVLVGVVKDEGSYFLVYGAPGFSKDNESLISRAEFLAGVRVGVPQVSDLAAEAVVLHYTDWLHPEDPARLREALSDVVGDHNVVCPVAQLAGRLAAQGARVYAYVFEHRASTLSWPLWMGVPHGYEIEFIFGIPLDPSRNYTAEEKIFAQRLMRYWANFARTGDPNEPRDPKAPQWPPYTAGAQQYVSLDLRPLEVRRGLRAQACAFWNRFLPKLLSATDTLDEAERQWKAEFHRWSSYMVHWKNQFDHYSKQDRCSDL


Tests used:
Assay in all cases: cell-based or functional assay
[1] = target: T1, Ubiquitin carboxyl-terminal hydrolase …
[2] = target: Matrix metalloprotease 9 (mutant Q279R), P14780
[3] = target: Cathepsin V, O60911
[4] = target: Lek kinase (h) (human), P06239
[5] = target: T2, PDE4D2 (h) (human), Q08499
[6] = target: T3, Caspase-7, P55210
[7] = target: T4, Acetylcholinesterase (h) (human), P22303

Sequence of Cathepsin V, O60911 (O60911 114-334 limits assumed): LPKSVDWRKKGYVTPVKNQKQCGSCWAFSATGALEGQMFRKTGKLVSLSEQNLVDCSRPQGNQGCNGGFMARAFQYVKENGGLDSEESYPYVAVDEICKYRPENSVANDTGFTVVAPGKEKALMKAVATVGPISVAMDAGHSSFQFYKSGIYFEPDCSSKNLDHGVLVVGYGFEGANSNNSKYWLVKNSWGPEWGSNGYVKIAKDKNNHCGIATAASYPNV
Sequence of Matrix metalloprotease 9 (mutant Q279R), P14780 (P14780 107-707 Q279R): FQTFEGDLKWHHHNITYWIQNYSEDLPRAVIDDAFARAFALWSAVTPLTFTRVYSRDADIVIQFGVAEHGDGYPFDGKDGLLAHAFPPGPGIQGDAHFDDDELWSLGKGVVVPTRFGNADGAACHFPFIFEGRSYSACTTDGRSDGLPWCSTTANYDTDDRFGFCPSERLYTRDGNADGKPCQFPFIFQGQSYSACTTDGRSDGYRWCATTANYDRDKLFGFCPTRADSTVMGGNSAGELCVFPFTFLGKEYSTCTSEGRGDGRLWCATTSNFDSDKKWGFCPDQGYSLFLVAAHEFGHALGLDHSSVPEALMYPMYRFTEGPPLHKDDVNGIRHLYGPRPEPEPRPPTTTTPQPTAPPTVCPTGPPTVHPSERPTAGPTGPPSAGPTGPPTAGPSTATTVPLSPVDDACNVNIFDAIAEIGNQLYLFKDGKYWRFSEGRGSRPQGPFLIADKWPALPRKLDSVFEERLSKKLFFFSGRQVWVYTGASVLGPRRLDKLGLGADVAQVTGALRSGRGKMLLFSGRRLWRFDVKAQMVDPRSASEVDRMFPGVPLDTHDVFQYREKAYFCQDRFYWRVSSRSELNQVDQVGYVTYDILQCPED
Sequence of Lek kinase (h) (human), P06239 (P06239 whole entry): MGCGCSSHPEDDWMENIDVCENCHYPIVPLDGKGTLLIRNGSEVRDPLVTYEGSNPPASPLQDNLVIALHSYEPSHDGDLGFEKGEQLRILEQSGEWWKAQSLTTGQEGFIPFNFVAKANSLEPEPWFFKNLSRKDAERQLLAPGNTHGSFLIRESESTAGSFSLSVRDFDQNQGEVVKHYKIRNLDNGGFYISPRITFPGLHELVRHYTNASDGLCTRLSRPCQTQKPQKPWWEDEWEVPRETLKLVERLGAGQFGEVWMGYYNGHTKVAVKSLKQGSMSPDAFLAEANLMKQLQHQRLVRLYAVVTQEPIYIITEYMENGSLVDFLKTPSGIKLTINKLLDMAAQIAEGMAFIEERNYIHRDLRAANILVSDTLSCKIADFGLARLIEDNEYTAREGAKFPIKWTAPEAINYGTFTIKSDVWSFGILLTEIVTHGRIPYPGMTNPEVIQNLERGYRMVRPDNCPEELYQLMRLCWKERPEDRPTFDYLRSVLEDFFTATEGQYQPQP

Row | Binder | Percentage inhibition (%) at 1 µM [1] [%] | Percentage inhibition (%) at 10 µM [1] [%] | Percentage inhibition (%) at 1 µM [2] [%] | Percentage inhibition (%) at 10 µM [2] [%] | Percentage inhibition (%) at 1 µM [3] [%] | Percentage inhibition (%) at 10 µM [3] [%] | % inhibition of control enzyme activity, compound at 10 µM [4] [%] | % inhibition of control enzyme activity, compound at 10 µM [5] [%] | Percentage inhibition (%) at 1 µM [6] [%] | Percentage inhibition (%) at 10 µM [6] [%] | % inhibition of control enzyme activity, compound at 10 µM [7] [%]
1 | Hex-CPPTQFCD-NH2 (bridge 1-7; not fully specified (bridges); printed as Hex-[Cys(tMeBn(DOTA-PP))-Pro-Pro-Thr-Gln-Phe-Cys]-Asp-NH2) [Hex-[Cys(tMeBn(DOTA-PP))-Pro-Pro-Thr-Gln-Phe-Cys]-Asp-NH2] | -3 | 6 | 3 | 2 | 1 | -18 | 10 | -5 | -3 | -3 | -6
2 | Hex-CPPTQFC-OH (bridge 1-7; not fully specified (bridges); printed as Hex-[Cys(tMeBn(DOTA-AET))-Pro-Pro-Thr-Gln-Phe-Cys]-OH) [Hex-[Cys(tMeBn(DOTA-AET))-Pro-Pro-Thr-Gln-Phe-Cys]-OH] | 2 | 1 | 3 | 2 | -1 | -1 | -4 | -4 | -1 | -7 | 1
